Consider two molecules from patent US9688764B2, “Methods of treating breast cancer by administering anti-human prolactin receptor (PRLR) antibodies” (REGENERON PHARMACEUTICALS, INC., priority 2013, dated 2017).

Like-named read-outs stand apart in the source and are kept apart here.

For one series, the system named is HEK293 (293) cells. Description: Cell viability (cell kill) assay. It counts as cell-based. An outline of the steps:
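Anti-PRLR–DM1 ADCs (non-cleavable SMCC linker) or free DM1-SMe, 500 nM to 5 pM for 3 days on parental or hPRLR-overexpressing lines. HEK293: CCK8 OD450; MCF7: Hoechst nuclear counts by imaging.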

Series [1] in a line: Conjugate characterization: protein and linker/payload concentrations, payload loading (UV, MALDI-TOF, SEC-HPLC, RP-HPLC). It counts as physicochemical. The conditions noted are these: Anti-PRLR-SMCC-DM1 conjugates; Table 9. An outline of the steps:
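Anti-PRLR antibodies were conjugated to DM1 via an SMCC linker, then purified by size exclusion and sterile filtered. Protein and linker/payload concentrations came from UV and MALDI-TOF, and monomer content and free linker-payload from SEC-HPLC and RP-HPLC. Payload loading was determined by UV and by native-versus-conjugated mass difference, with yields based on protein.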
In general terms: In gel filtration, larger molecules generally elute earlier.

Another series deals with MCF7 (MCF7/ATCC) cells. The series is described as follows: Cell viability (cell kill) assay, nuclear counts. It counts as cell-based. An outline of the steps: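 Anti-PRLR ADCs or free DM1-SMe were added at 500 nM to 5 pM final to cells seeded overnight and were incubated 3 days. MCF7 lines were fixed with 4% formaldehyde plus Hoechst 33342, and nuclei were counted by imaging, with digitonin […] background subtracted. Viability was expressed as % of untreated cells, and IC50 was obtained from a 4-parameter fit of a 10-point curve.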

For series [2], the system named is HEK293/hPRLR (293/hPRLR) cells. The series is described as follows: Cell viability (cell kill) assay. It counts as cell-based, human. The conditions noted are these: 3 days. An excerpt:
(§1) PRLR-overexpressing cells, including HEK293, PC3, MCF7 and NCI-N87, were generated to assess the ability of anti-PRLR conjugated antibodies to reduce cell viability. For comparative purposes, PC3 and T47D cells with overexpressed ErbB2 were also generated, as well as an MCF7 cell line over-expressing both hPRLR and hErbB2. Briefly, Lipofectamine® 2000-mediated transfection methodology was utilized to generate HEK293 cells expressing human PRLR (HEK293/hPRLR) or human ErbB2 (HEK293/hErbB2). Lipofectamine LTX with Plus Reagent was used to generate PC3 cells expressing human PRLR (PC3/hPRLR) or human ErbB2 (PC3/hErbB2). Lentiviral-mediated transduction was utilized to generate MCF7 cells expressing human PRLR (MCF7/hPRLR), NCI-N87 cells expressing human PRLR (NCI-N87/hPRLR), T47D cells over-expressing human ErbB2 (T47D/hErbB2), and MCF7 cells expressing both human PRLR and human ErbB2 (MCF7/hPRLR/hErbB2). All lines were selected for at least two weeks in complete growth media plus appropriate selection reagents. Stably expressing populations were enriched for PRLR expression via FACS using the anti PRLR antibody Control I.
(§2) Next, the ability of anti-PRLR-DM1 antibody-drug conjugates (i.e., anti-PRLR antibodies conjugated to DM1 via a non-cleavable linker [SMCC]) to reduce cell viability was determined using in vitro cell based assays. Cells were seeded in PDL-coated 96 well plates at 1500 to 10000 cells per well in complete growth media and allowed to grow overnight. For cell viability curves, ADCs or free DM1 (as the methyl disulfide derivative DM1-SMe) were added to the cells at final concentrations ranging from 500 nM to 5 pM and incubated for 3 days. The 293, PC3 and T47D cells were incubated with CCK8 (Dojindo, Rockville, Md.) for the final 1-3 hours and the absorbance at 450 nm (OD450) was determined on a Flexstation3 (Molecular Devices, Sunnyvale, Calif.). MCF7 cells were treated with Hoechst 33342 nuclear stain while being fixed with 4% formaldehyde. Images were acquired on the ImageXpress micro XL (Molecular Devices, Sunnyvale, Calif.) and nuclear counts were determined via Columbus image analysis software (Perkin Elmer, Shelton, Conn.). Background OD450 values (PC3, 293, and T47D) or nuclear counts (MCF7) from digitonin (40 nM) treated cells was subtracted from all wells and viability was expressed as a percentage of the untreated controls. IC50 values were determined from a four-parameter logistic equation over a 10-point response curve (GraphPad Prism).

Another series has as its system SK-BR-3 cells. Description: Cell viability (cell kill) assay. The settings on record: Table 16. It counts as cell-based.
The next series has as its system NCI-N87 cells. Description: Cell viability (cell kill) assay. The conditions noted are these: Table 17. It counts as cell-based.
Excerpt: as §1, §2
The potency of anti-PRLR conjugated antibodies compared with a similarly conjugated antibody to the co-expressed ErbB2 cell surface target was also assessed. […]

In the next series the test system is T47D/hErbB2 cells. Description: Cell viability (cell kill) assay. It counts as cell-based, human. The settings on record: T47D/ErbB2; Table 16.
Excerpt: as §1, §2
(§3) The potency of anti-PRLR conjugated antibodies compared with a similarly conjugated antibody to the co-expressed ErbB2 cell surface target was also assessed. Both PRLR and ErbB2 are expressed in a majority of breast cancers, and anti-ErbB2 antibodies conjugated to DM1 have shown clinical efficacy in targeting ErbB2 (+) breast cancer (Hurvitz et al; 2013).

Another series concerns MCF7/hPRLR/hErbB2 cells. The series is described as follows: Cell viability (cell kill) assay. The settings on record: MCF/PRLR + ErbB2; Table 17. It counts as cell-based, human.
Excerpt: as §1, §2, §3

A further series deals with NCI-N87/hPRLR cells. Description: Cell viability (cell kill) assay. It counts as cell-based, human. The settings on record: NCI-N87/PRLR; Table 17.
Excerpt: as §1, §2, §3

The next series deals with PC3/hErbB2 cells. Description: Cell viability (cell kill) assay. The conditions noted are these: PC3/ErbB2; Table 15. It counts as cell-based, human.
Excerpt: as §1, §2, §3

[3] abbreviates: 293/PRLR, Table 11, read-out: IC50.

B1: H1H6958N2-DM1: anti-PRLR antibody H1H6958N2 conjugated to DM1 through an SMCC linker (conjugate)
VH: QVQLVESGGGVVQPGRSLRLSCGASGFTFRNYGMQWVRQGPGKGLEWVTLISFDGNDKYYADSVKGRFTISRDNSKNTLFLQMNSLRTEDTAVYYCARGGDFDYWGQGTLVTVSS
VL: DIQMTQSPSSLSASVGDRVTITCRASQDIRKDLGWYQQKPGKAPKRLIYAASSLHSGVPSRFSGSGSGTEFTLTISSLQPEDFATYYCLQHNSYPMYTFGQGTKLEIK
B1: the “% Kill” value is reported as 90% in the series on HEK293 (293) cells (293, Table 19); 88% in the series on HEK293 (293) cells (HEK293, Table 13, without PRL); 72% in the series on MCF7 (MCF7/ATCC) cells (MCF7/ATCC, Table 18); 70% in the series on MCF7 (MCF7/ATCC) cells (MCF7/ATCC, Table 20); 77% in the series on MCF7 (MCF7/ATCC) cells (MCF7, Table 12, 3 days); 95% in series [2] (293/PRLR, Table 11). Also, the IC50 was found to be 100 nM in the series with HEK293 (293) cells (293, Table 19); 90 nM with HEK293 (293) cells (HEK293, Table 13, without PRL); 90 nM in the series with MCF7 (MCF7/ATCC) cells (MCF7/ATCC, Table 18); 70 nM in the series on MCF7 (MCF7/ATCC) cells (MCF7/ATCC, Table 20); 100 nM in the series on MCF7 (MCF7/ATCC) cells (MCF7, Table 12, 3 days); 0.1 nM in series [2] (setting [3]). Besides, in [1], the “Payload:Antibody Molar Ratio (MS)” value amounted to 3.4. In series [1], the “Payload:Antibody Molar Ratio (UV)” value is 4.0.

B2: H1H6953N-DM1 (conjugate)
VH: EVQLLESGGGLVQPGGTLRLSCAASGFTFSAYAMSWVRQAPGKGLEWVSSINVRAGDTYYADSVKGRFTISRDNSKNTLFLLMNSLRAEDTAAYYCAKARYSSNWGFDFWGQGTLVTVSS
VL: DIVMTQSPDSLTVSLGARTTINCQSSQTILHSSNNHNYLAWYQQKPGLPPKLLIYWSSTRESGVPDRFSGSGSGTDFTLTISSLQAEDVAIYYCQQYSNTPYTFGQGTKLEIN
As for B2, the half-maximal inhibitory concentration (IC50) in the series on HEK293 (293) cells (293, Table 11, 3 days) was determined as 100 nM; in the series with HEK293 (293) cells (293, Table 14), 100 nM; with SK-BR-3 cells, 100 nM; in the series on NCI-N87 cells, 90 nM; with MCF7 (MCF7/ATCC) cells (MCF7, Table 12, 3 days) it was 100 nM; with MCF7 (MCF7/ATCC) cells (MCF7, Table 16), 82 nM. Further, the IC50 was 2.4 nM in the series on T47D/hErbB2 cells; 0.33 nM in the series on MCF7/hPRLR/hErbB2 cells; 2.9 nM in the series on NCI-N87/hPRLR cells; 80 nM in the series with PC3/hErbB2 cells; 0.28 nM in series [2] (setting [3]); 0.43 nM in [2] (293/hPRLR cells (PRLR 18× above background), read-out: IC50, cell viability). Moreover, the “Payload:Antibody Molar Ratio (MS)” value in series [1] is 2.7. The “Payload:Antibody Molar Ratio (UV)” value in series [1] is listed as 3.2. The “% Kill” value worked out at 83% in the series with NCI-N87 cells; 55% in the series with MCF7 (MCF7/ATCC) cells (MCF7, Table 12, 3 days); 80% in the series with T47D/hErbB2 cells; 95% in series [2] (293/PRLR, Table 11).

What is called IC50 is the concentration needed to halve the response being measured.
